{"source": "patent US20210389324", "key": {"[1]": {"test_system": "CFP-TRIM14-YFP 25-residue substrate"}}}
{"substance": "Recombinant VEEV nsP2-thioredoxin Protease containing residues 457-792", "values": [{"measurement": "Km", "setting": "[1]", "result": 21, "unit": "µM"}, {"measurement": "Vmax", "setting": "[1]", "result": 0.056, "unit": "U/mg"}, {"measurement": "cleavage of CFP-YFP substrate", "setting": "[1]", "result": "VEEV nsP2 cysteine protease"}, {"measurement": "Km", "setting": "CFP-V12-YFP", "result": 12, "unit": "µM"}, {"measurement": "Vmax", "setting": "CFP-V12-YFP", "result": 0.059, "unit": "U/mg"}, {"measurement": "cleavage of CFP-YFP substrate", "setting": "CFP-V12-YFP", "result": "VEEV nsP2 cysteine protease"}]}
